Experiments:
[1] = molecular target: Fascin-bundled F-actin filaments (rabbit | not stated) (UniProt P68135); assay: transient kinetics, quenching of pyrene-actin fluorescence; myosin rapidly mixed with MgATP, then with pyrene-labelled actin (0-50 uM; single filaments or fascin bundles) with high MgADP to stop further cycling
[2] = molecular target: Actin purified from rabbit skeletal muscle (F-actin filaments) (rabbit) (UniProt P68135); assay: as above
[3] = molecular target: myosin X anti-parallel coiled-coil (Homo sapiens) (UniProt Q9HD67); conditions: cited from earlier work

| Substance | rate of pyrene-actin fluorescence quenching [1] [s⁻¹] | rate of pyrene-actin fluorescence quenching [2] [s⁻¹] | Kd [3] [nM] |
| --- | --- | --- | --- |
| MyoX-HMM-A938 (truncated human Myo10 HMM, amino acids 1-938, 19 amino-acid linker, Leucine zipper, AVI tag, Flag tag) (from UniProt Q9HD67 1-938; P0DP23 1-149) (complex) | 34 | 19 |  |
| Human myosin X MD-3IQ-SAH (S1, truncated at Gln 851) (from UniProt Q9HD67 1-851; P0DP23 1-149) (complex) | 17 | 18 |  |
| myosin X anti-parallel coiled-coil (from UniProt Q9HD67) |  |  | 600 |
